Results taken from patent publication US20250020634A1.

Target: NaV1.5-V5 (cardiac voltage-gated sodium channel alpha subunit, SCN5A)
Experiment: cell-based or functional assay

“rat β2-HA (sodium channel beta-2 subunit, SCN2B) (from UniProt P54900 30-215)” was tested, and the GV ΔV1/2 (mV), whole-cell patch clamp, BeHAPe cells, NaV1.5 + β2 was -2.5 mV, the SSI ΔV1/2 (mV), whole-cell patch clamp, BeHAPe cells, NaV1.5 + β2 was -9.9 mV and the shift of SSI V1/2 (fit to mean values, FIG. 5B), BeHAPe cells was -5.9 mV. It also gave a Δτ inactivation at V1/2 (ms), whole-cell patch clamp, BeHAPe cells, NaV1.5 + β2 of -0.5 ms.

Molecule “rat β1-V5-6×HIS (sodium channel beta-1 subunit, SCN1B) (from UniProt Q00954 19-218)” has a GV ΔV1/2 (mV), whole-cell patch clamp, BeHAPe cells, NaV1.5 + β1 of 6.7 mV, a GV ΔV1/2 (mV), whole-cell patch clamp, eHAP cells, NaV1.5 + β1 of 0.2 mV and an SSI ΔV1/2 (mV), whole-cell patch clamp, BeHAPe cells, NaV1.5 + β1 of 8.8 mV. For the same molecule, the SSI ΔV1/2 (mV), whole-cell patch clamp, eHAP cells, NaV1.5 + β1 was 3.2 mV, the shift of GV V1/2 (fit to mean values, FIG. 5A), BeHAPe cells was 7.5 mV and the shift of SSI V1/2 (fit to mean values, FIG. 5A), BeHAPe cells was 7.5 mV. It also gave a Δτ inactivation at V1/2 (ms), whole-cell patch clamp, BeHAPe cells, NaV1.5 + β1 of -1.7 ms and a Δτ inactivation at V1/2 (ms), whole-cell patch clamp, eHAP cells, NaV1.5 + β1 of -0.3 ms.

“β1 & β2 (rat β1-V5-6×HIS and rat β2-HA simultaneously co-expressed) (from UniProt Q00954 19-157; P54900 30-157)” showed a GV ΔV1/2 (mV), whole-cell patch clamp, BeHAPe cells, NaV1.5 + β1 & β2 of 7.9 mV, an SSI ΔV1/2 (mV), whole-cell patch clamp, BeHAPe cells, NaV1.5 + β1 & β2 of 9.1 mV and a shift of GV V1/2 (fit to mean values, FIG. 5E), BeHAPe cells of 9.3 mV. The shift of SSI V1/2 (fit to mean values, FIG. 5E), BeHAPe cells was 13.4 mV and the Δτ inactivation at V1/2 (ms), whole-cell patch clamp, BeHAPe cells, NaV1.5 + β1 & β2 was 0 ms.

B1: human β3 (sodium channel beta-3 subunit, SCN3B) (protein, UniProt Q9NY72 23-215, looked up)
chain: FPVCVEVPSETEAVQGNPMKLRCISCMKREEVEATTVVEWFYRPEGGKDFLIYEYRNGHQEVESPFQGRLQWNGSKDLQDVSITVLNVTLNDSGLYTCNVSREFEFEAHRPFVKTTRLIPLRVTEEAGEDFTSVVSEIMMYILLVFLTLWLLIEMIYCYRKVSKAEEAAQENASDYLAIPSENKENSAVPVEE
B1 showed a GV ΔV1/2 (mV), whole-cell patch clamp, BeHAPe cells, NaV1.5 + β3 of 8.8 mV, an SSI ΔV1/2 (mV), whole-cell patch clamp, BeHAPe cells, NaV1.5 + β3 of 9.1 mV and a shift of GV V1/2 (fit to mean values, FIG. 5C), BeHAPe cells of 7.4 mV. It also gave a shift of SSI V1/2 (fit to mean values, FIG. 5C), BeHAPe cells of 9.4 mV and a Δτ inactivation at V1/2 (ms), whole-cell patch clamp, BeHAPe cells, NaV1.5 + β3 of 0.4 ms.

B2: human β4 (sodium channel beta-4 subunit, SCN4B) (protein, UniProt Q8IWT1 31-228, looked up)
chain: LEVSVGKATDIYAVNGTEILLPCTFSSCFGFEDLHFRWTYNSSDAFKILIEGTVKNEKSDPKVTLKDDDRITLVGSTKEKMNNISIVLRDLEFSDTGKYTCHVKNPKENNLQHHATIFLQVVDRLEEVDNTVTLIILAVVGGVIGLLILILLIKKLIIFILKKTREKKKECLVSSSGNDNTENGLPGSKAEEKPPSKV
B2 showed a GV ΔV1/2 (mV), whole-cell patch clamp, BeHAPe cells, NaV1.5 + β4 of 5.2 mV, an SSI ΔV1/2 (mV), whole-cell patch clamp, BeHAPe cells, NaV1.5 + β4 of 2.4 mV and a shift of GV V1/2 (fit to mean values, FIG. 5D), BeHAPe cells of 6.1 mV. The Δτ inactivation at V1/2 (ms), whole-cell patch clamp, BeHAPe cells, NaV1.5 + β4 was 0.5 ms.

B3: Myelin protein zero (MPZ) (protein, UniProt P25189 1-248, looked up, species assumed)
chain: MAPGAPSSSPSPILAVLLFSSLVLSPAQAIVVYTDREVHGAVGSRVTLHCSFWSSEWVSDDISFTWRYQPEGGRDAISIFHYAKGQPYIDEVGTFKERIQWVGDPRWKDGSIVIHNLDYSDNGTFTCDVKNPPDIVGKTSQVTLYVFEKVPTRYGVVLGAVIGGVLGVVLLLLLLFYVVRYCWLRRQAALQRRLSAMEKGKLHKPGKDASKRGRQTPVLYAMLDHSRSTKAVSEKKAKGLGESRKDKK
modifications: full-length
B3 showed a GV ΔV1/2 (mV), whole-cell patch clamp, BeHAPe cells, NaV1.5 + MPZ of 8.7 mV, an SSI ΔV1/2 (mV), whole-cell patch clamp, BeHAPe cells, NaV1.5 + MPZ of 6.3 mV and a shift of GV V1/2 (fit to mean values, FIG. 5F), BeHAPe cells of 7.4 mV. For the same molecule, the shift of SSI V1/2 (fit to mean values, FIG. 5F), BeHAPe cells was 6.9 mV and the Δτ inactivation at V1/2 (ms), whole-cell patch clamp, BeHAPe cells, NaV1.5 + MPZ was 0.2 ms.
